{"source": "paper PMC1762009", "about": "“Structure of the yeast histone H3-ASF1 interaction: implications for chaperone mechanism, species-specific interactions, and epigenetics” (BMC Structural Biology, 2006)", "binders": {"B1": {"name": "C-terminal α3 helix of yeast histone H3 (residues 121–134) (domain or fragment, S. cerevisiae, UniProt P61830 122-135, looked up)", "chain": "KKDIKLARRLRGER", "notes": "histone H3, budding yeast, C-terminal alpha helix, amino acids 121-134; The final model holds H3 residues 121-131 only; also called H3α3; ScH3 121-134; source: E. coli, purified (Ni-chromatography, TEV cleavage, second Ni step, gel filtration), as a fusion behind Asf1N"}}, "target": "T1, conserved N-terminus of yeast Asf1 (residues 2–155) (S. cerevisiae, UniProt P32447 2-155)", "T1 construct": "Asf1 (anti-silencing function 1), budding yeast, residues 2-155; Written as a molecule of its own for the pair; also called Asf1N; ScAsf1; source: E. coli, purified (Ni-chromatography, TEV cleavage, second Ni step, gel filtration); not shown: His6, N-terminal, cleaved; MBP, N-terminal, cleaved", "T1 sequence (P32447 2-155)": "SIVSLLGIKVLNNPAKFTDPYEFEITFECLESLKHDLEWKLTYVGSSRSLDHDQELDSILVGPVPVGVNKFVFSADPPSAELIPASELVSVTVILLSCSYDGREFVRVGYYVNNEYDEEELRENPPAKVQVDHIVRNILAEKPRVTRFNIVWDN", "assay": "crystal structure; Asf1N fused to H3α3 by the linker AAGAATAA on one chain; hanging-drop vapor diffusion, 18°C, 85 mM Tris-HCl (pH 8.5), 120 mM Li2SO4, 25% PEG 4000, 15% glycerol; 2.2 Å", "conditions": "both partners purified"}
{"binder": "B1", "values": [{"measurement": "binding result", "value": "binds"}]}
